According to the domain aggregation screens of Martell et al. (2025):

Assay: soluble fraction after stress (log2 fold change); higher = more stays soluble; pooled small domains, quantitative proteomics
Conditions: stress: 50 degC
How it was run: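 Quantitative proteomics served as the high-throughput read-out for pooled custom libraries of small protein domains. Each was stressed at 50°C. Aggregation propensity is expressed as the base-two log fold change in soluble protein after stress. A higher value means a larger share of the protein remains in solution.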

Sequence | soluble fraction (log2)
HMSTTGIVKWFNEEKGFGFITQDQGGADVFVHYRAIASEGFKTLAEGQKVSFEVEQGQKGLQAANVQA | 0.0843
HMDFRVGVWVELVQQRRSVRTQLTWVSPQHTLFLFTAKDGSTQSMTLRMRDKLLAEGNLRIVAPPSR | -2.23
HMETKERDEQFLEMIRQNEGIIFKVASFYVDKEHPIGDLYQEVVLNLWKGYPSFRGESKYSTWIYRIALNT | -0.0833
HMDENTEQESQTVVVPDVTGKSLSEAASILREAGLDYLAEQTGTVVTKQMPLPDAEVLINTTVLLYTDSE | 0.0118
HMSKPIREVAYETLKNAIVTGEIPAGSRIVETEYAERMHISRTPLREALRKLERDGLVEYVVRRGVVVRAF | -1.54
HMAELTTVQAADILHVSRPFLIKLLDEGQIPYHRVGKHRRIRMEDVMNYKRAIDQQREAVLDQLVAEA | -0.0408
HMSQNVSFTVDSGQAGLRLDVFLSQADPAFSRSQIKYAIEEGDVTVNGKEPKVSQHLKDGDIVELHLE | -0.0973
HMVNIEAEVGRRLRQLRARRGLSLRALADLSGLNVNTLSLIENSKTSPSVSTLQQLARSLQVPITTFFESD | -0.447
HMPSLNDRPDDVLYLFSYFLQSFSHRQVSLPKILKKALIQHDWWGNIRELHSVALRYYIFGDTLNGAYDSL | -1.3
HMLSAGETYTLGYLKASDGILFTAADGSEQTVMQRVQVRLYDNGDGTYTARLADDIAYSAVVTEDMIDK | -0.116
HMSNRFIQFRQRAIDWLNSDRDFNAGILLLEESGFKPGVVAKLKRHGVNGPEAKKRLKFLINELVKAWA | -0.0824
HMVLSKGAKELLDFIMREGEVTTSKVVQKFGGSAQNASAKLKKLYATGLILGSKAVAESGGLEFVYKA | 0.393
HMDPEIADAVNTIKKYLESHYSEVITRKKIEELVHLNQDHINREFKKQTGYTLMEYVQHYRILMAKKMLRV | -0.243
HMEALPELTDRQRQVYEFIEARIAEWGYPPTIREIGQHLGIKSTNGVADHLKALKRKGYLQQ | -0.0721
HMAKSETAKIKATPYGWLRVRDTPSLNGAEIARVNSGDEYKVLEKETGWIKIKVSDTVEGWVSDAYIELS | -0.0312
HMGTIEQAFKGKAPGSAHLYDRARAVLAGGVTHDTRIHAPFPIMVQRALGARKWDVDGNEYIDY | 0.0863
HMRNKTVKEVLDYIEKNSEFIFFYYSKAIDTKRIVSLSVKDQPITVILDQLFKNTDVLYEIKDRQISLKRE | 0.277
HMEYKKKIGELLIDGNKKLKAANIDTYILDTQLLLGKVLGKDKLYLITNKDEEVSNFKEREFYSLIEKRI | 0.00227
HMKNIINLVIDGELHGKRIDAVIAQKNDSLSRTRIKNLVINGNLSINDEIVSDPSKKIYKDDKVSLTIPLP | -0.058
HMGHEALSSKLDEIQGVGKEKRSLLLDHFKTFERIKNASMEELEAVPSLGKNTAKAVFRFFHS | 0.07
HMGKSPLDALSAREKEVLTYITRGVSINDIAAVLYLSPKTVSTHKTNLMQKLGIENNADLILFGVNHGLND | -0.513
HMKTFSFEILADTVKKQRKAKGMTQAELSEATGINRSMIGQMENMTFKPSIEQLEALSQALDFNVIDLYTE | -0.196
HMNTFKNIFIQEGDLFNLKKNDNQIIFAKEGILINENKKIFRLLNGKIISTNNNRLIGFEFDKIDYNLSN | 0.489
HMQEDSNISFVKIHVDADSGMAHKKLSKLSLPTGFLIVVIIRGEENIIPNGETEVLPGDLLVAAAREFEN | -0.405
HMADIWDLLRSEYKLTETDVRMLTDMLPDELMNDFRSEVLALRDRMNRYKVNNPKSYVVTSLKNFIIQHTP | -0.263

Sequence | soluble fraction (log2)
HMTGGMVTYIIEKGEGFFSLERKFGLSENELIKLNPSLKSGLKSEMQINIPKENYDRYVASS | -0.0276
HMWGQDVLFTIDKKEFKGKLLEQSDKHTTFLPDGQKTPQKIPNRLIKEIHLGSNKIIDFGNDFLI | -0.179
HMPAVGGVVKGAVVSVGRNEVRLDIGGLAIGIIRGPELDKHVDLRIGDEVEATVITLDNEFGELELSL | -0.72
HMEPIAFDNMHNRGIKGTNDWTQYEITLPFSAEAKKIFVAGLLVGKGKAWFDKFEVFLDGKNITDVAQI | 0.124
HMNDQLIYSDFIRQVQDGQITEVTISGLNIAGTRSDGSVFNTLRPYIEDPKLIDDLLSHNVRIQGAE | -0.2
HMDTFSVAIGTKTPDGSSVGEVKTISRDELLLLEDEVAEDPTKEIIFTGGTKDSAQAALDGWIDYNTNLAS | 0.00318
HMAHYPGKVNNELVEFIRSEQRKTPHMTLTGLNRKLQRTYDLTLSESTVRKLVEAETILPLAREPD | -0.0739
HMSTEDYLKTIYILESQQGVHGSDVARMLKVTRPTVSIALKALEQEGYVWMDESRLVHLTDSGLQIAKDT | -1.12
HMAVPFTIDVSQNGRYFIEEDNQVVEVSIGFLEDRFLRIIKSNPDIEVIIRGDAKASYESIAELLAVLQ | -1.06
HMTPDLSEFKERLRQILPGEPIEVRTANDGIVLSGTVTSIAALDRALDLAERYAPDKVSNLLSVG | 0.0882
HMNEIDDYDIQLLEYLSKGVSQEAMESVFKQAGITPNSKSTIEKRISKLKIYFKALNTTHLVSITKDLGL | -0.642
HMPEPAPALPAKTRVSIRRETGGIIWHEGAWTISPPIRAYDGRWYVAVTTARKGIEFVPVSSVIRS | -1.07
HMTIELAEGQHFLQISKSGAPMGNVVRDLIIQTLKITNGNQIKAAKILGISRAKLRYRIEQLGINITGKNI | -2.67
HMRLADHVVEKLLALVQERGLQPGQKLPAERQLAEVLGVSRTSVREAIQKLVSQGVLSARRGDGTYVQS | 0.00808
HMKTKILAPIPGSIMVVDVKVGDTVKVGDRLVQLEAMKMENNITSEKAGKITAVLVTAGQKVLQNEVMIEL | -0.853
HMKKGRIGSIIQYVREHPGVSSSEIITGLGLDISPATIRRDLTLLVAENKLSVEGQNKGTKYFVSPTYDMF | -0.323
HMNTEKRVFAGVENTRLDHFLVEQFPEFSRTFIQQMIKSANVIVNGNIEKASYKLREGDTIMTRPM | -0.253
HMDPERLDQLQNPDPAVRREAIIALGRSKDLAALPELAKVYKNDPVPELRELARQAGRYIQQENRP | 0.126
HMDGASVQRITELTATLNRYRHEYYNLAKPSVSDAVYDRLFDELAALEQKTGIVLSNSPTQTV | -0.247
HMTGEEVLIMLGEKMKLIRNYNGYSQRQIAEILKIERSTYASYETGRNRPDIFAVQRFAKIFNVSVDYIL | -0.118
HMKKYLTETEAAAYLNMPVEEIKAAITKGEIEQYVKTSSGYTISVEELDKFFGQKAYDTMTSNNS | 0.174
HMFLPFFDNLRKAGVPVSLREFLGFLEGMKAGLATYDIDAFYFLARTTMVKDERNLDKFDRAFSATFKG | -0.563
HMKLFGTPGSPFARKVRIVLEEKRIPHEYIIERGSAPGSRVPQYNPLGKVPTLVLDDGRGLYDSPVIVEYL | -0.492
HMWPDDAIALPTRDGQDVGGAQERTMLAFASGAAGIRTVEEINPDGSITRLRTRYGWPTFETEGARTAAAE | -0.109
HMAQDIEQLEKAVSFYTRMDPAAAALSITNLDQKTAVNILMRMKDKQASAVLESMTAERSSELIDSIARK | 0.00388

Sequence | soluble fraction (log2)
HMSTYTETETAYLKAYSAAGVDGKISDSERGILNMTAEALGITVERTTELEAMFNLTVEEEA | -0.118
HMVNKQERTYTILRDRIHSGSFAPLERLNIDALARELGVSPIPVREALRRLEAEGWVRFTPNVGAVVSP | -0.165
HMRYWVKSETDFLIENRGKYSYQEFADMLGRSYAVVYDKMHQLKIDYTKEELEIFDEKHKAQMREKQQR | -1.52
HMGDTPVDFSEFIRWVDTGVVDRVELTGNEIVGTSSSGERFSTYAPPQYEGLGNKLIERDIVVVATAA | -0.164
HMTITPEVIVNHFKNLDLFFTKNGNYYEFKKKGTENILFKYGIYKQKPNIFVKIQRYPISSLSDLERIPI | -0.844
HMGKAVTLEEARAIIQAKVPGASPDMIQIWEEHGDGRGRYEGELSYNNMKYEFEMDPKTGIIFDWNA | -0.224
HMTVVSVDDQASASSEAIRTKVAGDSAARMSVDAGGKITWGAGSASGDVTLYRSAANTLKTDDTLVAT | -0.0266
HMQDKLLRKKEVLEMVSITNSTMYRMIGSGQFPRPIRLDNANINSGVRWKLSEINTFIEQRF | -0.409
HMEKLNYSISNEEQGQRIDKYLSLMIEGKSRSFIQGLIDDKKVMANGKVIKSNYKLKNNDEITVEMPDPI | -0.155
HMDLGLTDDQRLVYGLLSPTVPRSSGELLGMVDFGRSKLSRILKELIELGQVFTVGVGRGLKYKRG | -0.307
HMHPLFRVVLAGEPNGVGLDDWLTRHEAELINGPSAIGVLTVKIAMGRRSFETVLDEIRADGETIFVEPV | -2.66
HMKKASLSTVEKKLMKQNYSNDTMENRLARVESYMFGTVFSSDDTQTRIDRISSAYNAQKSS | 0.142
HMKYWTISDLYSKLEEDQVELGAFSEDSNKVTVLDRQGYEHVIKILSSDVPALTELFRKKKVRFAVAG | -0.132
HMKLASIGDNIHTLRKNKGLTQSQLAGKLGVNVDTISNYEKGVSTPDFDIVEKLVNIFNVDAHSLLFK | 0.127
HMELARLRPELDGNDIMRILGVPPGPVVGRAYTYLLELRINQGELGRERVTQLLLDWAAAEGISA | -2.02
HMTEKIEWYKEVLELEPNSKVFFPLARMLAEEQRFDEAVAVLEHGLERHGEFLEARLFFIELLHET | -3.69
HMRQKTTFFATESFELPNGEKVEEGQIFRLNDGAFNIAEQQGITRFLTSEANYGRMIAANAEVEKAKLDA | 0.268
HMTVTISPGYEGRLLRSYLKNTLSLSTSALARLKTREDGITVNGVRVTVRYVLHAGDLLQLAVD | -0.597
HMQTEFVISSGEQPKRLDVFLLQREPYLSRAALQRMIAAGWVRVNNHLAKSSQRIKAGDVIVFD | -1.41
HMQVEYTRGELIQDLEGGKIVYAGISPSRETPTGEVNFILDSGLTRTLYVTDVSEIEQLLISYDIDPEVKK | -0.0036
HMIMPSDATEAKLLGVLGNEPLHVDEIRNQAELPIEKVSAALALMELKGMVRQVGGMNYVAVR | 0.117
HMKELTPEQLQHNWNNLRQFIDVNFSGDRLGGLNKMYDYFEERMMFAPASGKQHYHNAFAGGYVEHVMHV | 0.335
HMSKAYLSVESNISGARVFVDGQKEGTTPLSDVLLSAGEHLILVKKQGYETYQKRVRFQKGRSMSLYVDLS | -0.159
HMDTHDVQVPQEGQGLRLDLFLTDHIEGSRSFIQTIIKDGHVILNGKKAKANSRLNEGDYVVWSIPKPE | -0.0683
HMFIGFLHQLKEAGVPVSIREYLDFLSGLDKGITNLNTNSFYHFARASLVKDERHYDRFDRTFSEFFEGAL | -3
